Test results as given in patent publication US20220235103A1 (Molecular Partners, published 2022).

Columns and labels:
Assay in all cases: cell-based or functional assay
[1] = molecular target: SARS-CoV-2 spike protein A222V (SARS-CoV-2, UniProt P0DTC2 14-1273)
[2] = molecular target: SARS-CoV-2 spike protein G476S (SARS-CoV-2, UniProt P0DTC2 14-1273)
[3] = molecular target: SARS-CoV-2 spike protein G446V (SARS-CoV-2, UniProt P0DTC2 14-1273)

| Binder | VSV Pseudotype Neutralization Assay IC50 [1] | VSV Pseudotype Neutralization Assay IC50 [2] | VSV Pseudotype Neutralization Assay IC50 [3] |
| --- | --- | --- | --- |
| vS07_23E04 (designed binder, also called R3c) MRGSHHHHHHGSDLGKKLLQAARAGQLDEVRELLKAGADVNAKDQEGITPLHVAAHQGHLEIVEVLLKAGADVNAKDVWGRTPLHLAAWRGHLEIVEVLLKAGADVNAKDHAGATPLHAAALSGHLEIVEVLLKAGADVNAQDKSGKTPADLAARAGHQDIAEVLQKAA | 19.5 ng/mL | 29 ng/mL | 2.3 ng/mL |
| vS07_29B10 (designed binder, also called R3b) MRGSHHHHHHGSDLGKKLLQAARAGQLDEVRELLKAGADVNAKDREGITPLHLAAQHGHLEIVEVLLKAGADVNAKDVWGRTPLHLAAWQGHLEIVEVLLKAGADVNAKDLAGATPLHVAALYGHLEIVEVLLKAGADVNAQDKSGKTPADLAARAGHQDIAEVLQKAA | 3.3 ng/mL | 2.3 ng/mL | 0.7 ng/mL |
| vS07_12C06 (designed binder, also called R1b; Rb1) MRGSHHHHHHGSDLGKKLLQAARAGQLDEVRELLKAGADVNAKDREGKTPLHVAAQEGHLEIVEVLLKAGADVNAKDVWGRTPLHLAAWIGHLEIVEVLLKAGADVNAKDVSGATPLHAAALHGHLEIVEVLLNAGADVNAQDKSGKTPADLAARAGHQDIAEVLQKAA | 4.6 ng/mL | 3.7 ng/mL | 1.8 ng/mL |
